# T1: GST fusion containing the C-terminal 19 amino acids of DLC1/PIN
# T1 chain: KHFIYFYLGQVAILLFKSG
# B1: GST-Pak1 fusion protein, wild-type (amino acids 1-545) (protein)
# chain: MSNNGLDIQDKPPAPPMRNTSTMIGVGSKDAGTLNHGSKPLPPNPEEKKKKDRFYRSILPGDKTNKKKEKERPEISLPSDFEHTIHVGFDAVTGEFTGMPEQWARLLQTSNITKSEQKKNPQAVLDVLEFYNSKKTSNSQKYMSFTDKSAEDYNSSNALNVKAVSETPAVPPVSEDEDDDDDDATPPPVIAPRPEHTKSVYTRSVIEPLPVTPTRDVATSPISPTENNTTPPDALTRNTEKQKKKPKMSDEEILEKLRSIVSVGDPKKKYTRFEKIGQGASGTVYTAMDVATGQEVAIKQMNLQQQPKKELIINEILVMRENKNPNIVNYLDSYLVGDELWVVMEYLAGGSLTDVVTETCMDEGQIAAVCRECLQALEFLHSNQVIHRDIKSDNILLGMDGSVKLTDFGFCAQITPEQSKRSTMVGTPYWMAPEVVTRKAYGPKVDIWSLGIMAIEMIEGEPPYLNENPLRALYLIATNGTPELQNPEKLSAIFRDFLNRCLDMDVEKRGSAKELLQHQFLKIAKPLSSLTPLIAAAKEATKNNH
# Experiments:
# [1] = molecular target: GST-DLC1/PIN with deletion of Ser88
# [2] = molecular target: T1, GST fusion containing the C-terminal 19 …
# [3] = molecular target: GST-DLC1/PIN fusion protein (wild type)
protein,measurement,setting,value
B1,in vitro kinase assay with DLC1/PIN deletions,[1],Deletion of Ser88 of DLC1/PIN completely abolished the ability of the Pak1 to phosphorylate DLC1/PIN
same,in vitro kinase assay with DLC1/PIN deletions,[2],GST fusion containing the C-terminal 19 amino acids of DLC1/PIN was efficiently phosphorylated by Pak1
same,in vitro kinase assay (phosphorylation of GST-DLC1/PIN by purified Pak1 enzyme),[3],The Pak1 enzyme efficiently phosphorylated DLC1/PIN
